Assay results as given in patent US20230391828A1 (TECHNISCHE UNIVERSIT T DRESDEN, published 2023).
Bridge positions count the residues as written; N and C are the ends. Square brackets hold non-standard residues; d marks the D form. R8 = C=CCCCCCC[C@@](C)(N)C(=O)O; S5 = C=CCCC[C@](C)(N)C(=O)O; Pra = C#CC[C@H](N)C(=O)O

Assays:
RBX1 = target: T1, RBX1 (human (HeLa K cells), UniProt P62877 2-108); experiment: pull-down from HeLa K cell extract with G3-6Pra on azide magnetic beads, western blot
T1 construct: Detected by western blot after pull-down from HeLa K cell extract
T1 sequence (P62877 2-108 limits assumed): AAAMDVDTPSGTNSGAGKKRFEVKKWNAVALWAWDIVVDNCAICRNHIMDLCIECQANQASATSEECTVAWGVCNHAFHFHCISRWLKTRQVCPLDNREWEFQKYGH
Experimental: (§1) As a control, G3-N4Pra negative control molecule was used. Western blot analysis was performed and indicated proteins were detected using near-infrared fluorescence imaging. GAPDH serves as a control for unspecific binding.
(§2) In mean time, inhibitor molecules containing Propargyl (Pra) chemical group were covalently attached to the azide agarose or azide magnetic resin (Jena Bioscience) by Cu(I)-catalysed azide-alkyne cycloaddition reaction. […] The reaction was catalysed by 1 mM CuSO₄, 0.1 mM TBTA (Sigma-Aldrich) and 1 mM Sodium ascorbate and was performed on the rotating wheel for 30 min at room temperature in the volume of 1 ml. Subsequently, the resin was washed 5 times with the extraction buffer. The inhibitor-agarose resin was added to 1 mg of HeLa K cell extract and the inhibitor-magnetic resin was added to 0.5 mg of HeLa K cell extract followed by incubation at 4° C. for 2 h. Followed by washing the resin 5 times with the extraction buffer. Pull-down proteins were eluted by boiling for 15 min with 1×LDS sample buffer supplemented with 100 mM DTT (agarose resin) or by incubation with 1×LDS sample buffer for 10 min at room temperature followed by taking supernatant that was supplemented with 100 mM DTT and boiling it for 10 min. Samples were subjected to SDS PAGE and Western blot analysis.

Cullin 1 = target: T2, Cullin 1 (human (HeLa K cells), UniProt Q13616 1-776); experiment: as above
T2 construct: Detected by western blot after pull-down from HeLa K cell extract; also called Cullin 1, subunit of E3 ubiquitin ligases related to the APC/C
T2 sequence (Q13616 whole entry): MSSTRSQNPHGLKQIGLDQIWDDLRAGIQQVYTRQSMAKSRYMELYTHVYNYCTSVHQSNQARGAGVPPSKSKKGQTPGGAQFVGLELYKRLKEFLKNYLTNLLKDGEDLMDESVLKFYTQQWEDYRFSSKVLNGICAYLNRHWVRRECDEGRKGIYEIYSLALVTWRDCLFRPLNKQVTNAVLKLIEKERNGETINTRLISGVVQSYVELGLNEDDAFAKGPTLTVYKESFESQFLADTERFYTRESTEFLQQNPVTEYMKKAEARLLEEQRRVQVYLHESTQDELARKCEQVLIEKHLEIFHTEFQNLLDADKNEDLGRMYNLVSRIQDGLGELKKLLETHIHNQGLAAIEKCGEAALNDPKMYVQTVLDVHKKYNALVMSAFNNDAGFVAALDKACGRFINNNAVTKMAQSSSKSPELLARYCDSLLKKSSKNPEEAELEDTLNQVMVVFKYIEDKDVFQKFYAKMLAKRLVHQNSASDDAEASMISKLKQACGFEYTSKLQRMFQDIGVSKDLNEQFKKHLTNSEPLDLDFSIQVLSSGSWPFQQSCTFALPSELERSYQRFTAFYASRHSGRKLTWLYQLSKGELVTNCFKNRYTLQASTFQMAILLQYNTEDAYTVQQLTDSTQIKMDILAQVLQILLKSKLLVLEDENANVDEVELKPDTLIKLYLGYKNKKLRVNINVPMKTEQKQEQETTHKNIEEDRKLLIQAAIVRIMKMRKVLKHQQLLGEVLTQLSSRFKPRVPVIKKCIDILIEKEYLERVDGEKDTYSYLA
Experimental: as §1, §2

B1: G3-6Pra, Ac-cyclo(4,11)-EWPraZIKEIQRXRRA-NH2 (peptide)
peptide: Ac-EW[Pra][R8]IKEIQR[S5]RRA-NH2
modifications: staple 4-11; not fully specified (residue 3); printed as Ac-cyclo(4,11)-EWWZIKEIQRXRRA-NH2
notes: In the pull-down it was covalently attached to azide magnetic beads through Pra; also called ID; NO; 37
Question: What does the source list for B1?
Answer: binding result (RBX1): no binding; binding result (Cullin 1): no binding
